Test results taken from patent US20180037910.

What was measured:
[1] = system: Il2rg ZFN-1 (synthetic construct); assay: cell_activity; settings: ZFN-1+ZFN-2 pair with LTVEC versus LTVEC alone, fold increase in targeting efficiency; 6 bp spacer; mouse F1H4 ES cells
[2] = system: Il2rg ZFN-2 (synthetic construct); assay: cell_activity; settings: ZFN-1+ZFN-2 pair with LTVEC versus LTVEC alone, fold increase in targeting efficiency; 6 bp spacer; mouse F1H4 ES cells

Sequence | activity [1] [fold] | activity [2] [fold]
AGCTCCAAGGTCCTC (double strand) [Il2rg exon 1 ZFN-1 half-site (sense strand)] | 4 | 
GTCTTCATTCGCACT (double strand) [Il2rg exon 1 ZFN-2 half-site (anti-sense strand)] |  | 4
